Data: PMC9477884 (Communications Biology, 2022)

Columns and labels:
MazE6 = target: T1, MazE6 (UniProt P9WJ87 1-82); assay: gel filtration; details: protein: recombinant; chain copies: 2; blunt
T1 sequence: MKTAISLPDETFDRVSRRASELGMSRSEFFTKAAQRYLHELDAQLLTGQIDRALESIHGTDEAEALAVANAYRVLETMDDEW

[1] = target: the molecule itself; assay: SEC-MALS; MazE6 in solution; observed mol. wt. 17 kDa

B1: mazEF6 operator DNA (dsDNA)
DNA 1: CCGGTTATACTATCTGTA
DNA 2: TACAGATAGTATAACCGG
MazE6
  binding result: binds

B2: MazE6 antitoxin (residue 1-82) (natural protein)
chain: T1 sequence
[1]
  stoichiometry N: 2
